# According to US20230144459A1, “SHEDDING BLOCKING AGENTS WITH INCREASED STABILITY” (BIOND BIOLOGICS LTD., priority 2020, published 2023):
# Columns and labels:
# [1] = target: T1, human CD28 stalk region dimeric peptide (Homo sapiens, UniProt P10747); assay: CD28 stalk region binding assay (ELISA), wild-type peptide; conditions: serial dilution ELISA
# T1 construct: purchased Genecust Europe (custom synthesis, stated for the tagged peptide); host or cells: synthetic peptide
# [2] = target: T2, CD28 shedding in HEK cells overexpressing human CD28 (Homo sapiens, UniProt P10747); assay: HEK spontaneous CD28 shedding assay; type: cell-based; conditions: 48 hr, 3.3-100 μg/mL
# T2 construct: HEK293 cells overexpressing human full-length CD28 were analyzed; expressed in transfected cells
# [3] = target: T3, CD28 shedding in isolated human CD4 T cells (Homo sapiens, UniProt P10747); assay: CD28 shedding in isolated CD4 T cells activated by PHA and IL2; type: cell-based; conditions: 5 μg/mL PHA, 200 IU/mL IL-2; 0.4-50 μg/mL
# T3 construct: endogenous in cells; host or cells: CD4 T cells and PBMCs from fresh blood of healthy donors
# [4] = target: T4, CD28 shedding in PBMC (Homo sapiens, UniProt P10747); assay: CD28 shedding in PBMC activated by superantigen (SEB); type: cell-based; conditions: 1 ng/mL SEB; 0.4-50 μg/mL
# T4 construct: endogenous in cells; host or cells: CD4 T cells and PBMCs from fresh blood of healthy donors
# Procedure: FIG. 9. […] Levels of soluble CD28 were measured in culture media of isolated PBMC stimulated with 1 ng/mL SEB (light grey bar). […] The levels of soluble human CD28 in the supernatant were quantified with standardized sandwich ELISA (R&D system).
# Cellular assays evaluating anti shedding activity of VHH—For SEB activation of PBMCs, 0.1×10^6 PBMCs were stimulated with […] SEB (Sigma, Cat. No. S4881) for 5-7 days at 37° C. with/without the indicated concentrations of various treatments in 96 well plates. For PHA activated T cells, 0.1×10^6 CD4 T cells were incubated with the indicated concentration of Phytohemagglutinin (Sigma, Cat. No. L8902) and 200 IU/mL of IL-2 (Proleukine) for 5-7 days at 37° C. with/without the indicated concentrations of various treatments in 96 well plates. For HEK spontaneous CD28 shedding assay, 0.1×10^5 HEK cells were incubated for 48 hours at 37° C. with/without the indicated concentrations of various treatments in 96 well plates.
Molecule,binding to human CD28 stalk region peptide (in words) [1],"inhibition of CD28 shedding, HEK cells overexpressing human CD28 [2]","inhibition of CD28 shedding, CD4 T cells activated by PHA and IL2 [3]","inhibition of CD28 shedding, PBMC activated by SEB [4]"
"4A1: VHH clone binding the stalk region of human CD28, SEQ ID NO: 35 (protein) VHH: QVQLVESGGGLVQAGGSLRLSCAASGSIFSINAMGWYRQAPGKQRERVAAITSGGSTNYADSVKGRFTISRDNAKNTVYLQMNNLEPRDAGVYYCVVDLYGEDYWIWGQGTQVTVSSAAAHHHHHH",bind specifically,–,–,–
"4A4: VHH clone binding the stalk region of human CD28, SEQ ID NO: 34 (protein) VHH: EVQLVESGGGLVQAGGSLRLSCAASGSLFSINAMAWYRQAPGKQRELVAAITSSGSTNYANSVKGRFTVSRDNAKNTMYLQMNSLKPEDTAVYYCVVDEYGSDYWIWGQGTQVTVSSAAAHHHHHH",bind specifically,inhibit CD28 shedding,inhibit CD28 shedding,inhibit CD28 shedding
